Results taken from patent CN114702585A (SHENZHEN BINDEBIO TECH CO LTD, dated 2022).

Target: T1, CD22蛋白 (购自义翘神州) (UniProt P20273 20-687)
T1 construct: Bought recombinant protein; also called CD22蛋白抗原
T1 sequence (looked up): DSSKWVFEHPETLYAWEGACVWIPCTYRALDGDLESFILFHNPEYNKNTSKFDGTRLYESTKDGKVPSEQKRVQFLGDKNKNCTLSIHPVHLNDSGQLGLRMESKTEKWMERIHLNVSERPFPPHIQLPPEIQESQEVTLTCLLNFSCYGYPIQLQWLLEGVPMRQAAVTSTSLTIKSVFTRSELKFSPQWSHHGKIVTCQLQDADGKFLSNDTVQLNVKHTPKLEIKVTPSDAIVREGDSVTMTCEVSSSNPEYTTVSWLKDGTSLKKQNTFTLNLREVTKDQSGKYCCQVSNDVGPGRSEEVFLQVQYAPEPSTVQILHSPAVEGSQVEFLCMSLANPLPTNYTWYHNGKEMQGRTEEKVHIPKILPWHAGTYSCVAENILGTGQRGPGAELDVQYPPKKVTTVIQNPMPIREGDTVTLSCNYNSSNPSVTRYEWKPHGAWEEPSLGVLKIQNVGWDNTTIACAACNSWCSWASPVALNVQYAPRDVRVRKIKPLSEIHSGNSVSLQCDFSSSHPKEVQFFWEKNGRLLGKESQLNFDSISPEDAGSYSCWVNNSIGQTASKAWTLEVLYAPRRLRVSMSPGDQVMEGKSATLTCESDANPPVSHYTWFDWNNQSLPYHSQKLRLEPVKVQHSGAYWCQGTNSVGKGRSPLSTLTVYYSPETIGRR
Assay: BLI (OCTET K2), CD22 protein loaded on AHC sensor, 4F6 in solution 500-5.21 nM

B1: 抗CD22的单克隆抗体4F6 (antibody, V domains shown)
VH: EVLLQQSGPELVKPGASVKIPCKASGYTFTDYNMDWVKQSHGKSLEWIGDIDPNNGITIYNQKFKGKATLTIDKSSSTAYMELRSLTSEDTAVYYCARDRYDRGYALDYWGQGTSVTVSS
VL: DIVMTQSPSSLAMSVGQKVTMSCKSSQSLLNSSNQKNYLAWHQQKTGQSPKLLVYFASIRDSGVPDRFIGSGSGTDFTLTINSVQAEDLADYFCQQHYSTPFTFGSGTKLEIK
notes: also called 4F6抗体; CD22单克隆抗体
Kd: 3.14 nM
